The text below walks through data of patent US20030109481, “Tumour-cell specific gene expression and its use in cancer therapy” (published 2003).

Holding throughout (conditions): tags: baculovirus-expressed
Data set [1] addresses T1, E2F-1/DP1 heterodimer (UniProt Q01094;Q14186 Q01094:1-437,Q14186:1-410). The experiment in a line: EMSA. (A gel shift assay detects complexes by their altered migration in electrophoresis.)
For data set [2], the target named is T1, E2F-1/DP1 heterodimer. The experiment in a line: EMSA; stated as similar results to first mutation.
Data set [3] has as its target T1, E2F-1/DP1 heterodimer. Kind of data set: EMSA; mutation abolished E2F-1 binding; promoter activity reduced about 2-fold and E2F-1 activation suppressed.
Data set [4] addresses T1, E2F-1/DP1 heterodimer. The experiment in a line: EMSA; mutation abolishes binding; promoter activity reduced at least 2-fold but not activation by E2F-1.

T1 sequence (Q01094 whole entry, chain 1 of 2): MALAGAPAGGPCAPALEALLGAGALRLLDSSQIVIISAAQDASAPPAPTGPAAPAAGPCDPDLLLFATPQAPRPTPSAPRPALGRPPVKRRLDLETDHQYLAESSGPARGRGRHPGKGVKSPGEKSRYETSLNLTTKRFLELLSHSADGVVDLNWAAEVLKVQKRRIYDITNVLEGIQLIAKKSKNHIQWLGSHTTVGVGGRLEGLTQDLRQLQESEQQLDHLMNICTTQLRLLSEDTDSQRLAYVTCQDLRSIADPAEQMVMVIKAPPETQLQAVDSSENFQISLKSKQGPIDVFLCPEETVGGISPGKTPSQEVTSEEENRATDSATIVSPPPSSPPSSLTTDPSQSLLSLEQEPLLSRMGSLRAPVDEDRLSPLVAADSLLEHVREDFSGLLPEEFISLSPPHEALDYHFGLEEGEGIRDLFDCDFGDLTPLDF
T1 sequence (Q14186 whole entry, chain 2 of 2): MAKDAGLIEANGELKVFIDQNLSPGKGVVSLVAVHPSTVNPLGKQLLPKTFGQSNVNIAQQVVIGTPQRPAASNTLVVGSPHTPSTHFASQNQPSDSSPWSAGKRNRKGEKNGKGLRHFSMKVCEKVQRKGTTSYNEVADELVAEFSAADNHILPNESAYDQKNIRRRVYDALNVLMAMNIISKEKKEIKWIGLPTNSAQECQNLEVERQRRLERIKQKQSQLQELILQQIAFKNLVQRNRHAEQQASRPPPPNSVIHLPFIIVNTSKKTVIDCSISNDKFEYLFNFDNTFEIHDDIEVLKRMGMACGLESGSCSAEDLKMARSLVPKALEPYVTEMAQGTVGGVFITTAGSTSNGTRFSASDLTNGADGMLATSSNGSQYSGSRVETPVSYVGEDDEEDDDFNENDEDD

B1: Skp2 promoter region 4 (dsDNA)
DNA 1: AGTTCGCGGGTCC
DNA 2: GGACCCGCGAACT
For B1, the binding result with E2F-1/DP1 heterodimer [1] is given as “binds”.

B2: region 2 mutant 2 (dsDNA)
DNA 1: AATCCATCCCGGCACCTCAGG
DNA 2: CCTGAGGTGCCGGGATGGATT
B2: the binding result in the data set with E2F-1/DP1 heterodimer [2] is recorded as “no binding”.

B3: Skp2 promoter region 1 (dsDNA)
DNA 1: GCTCCGGGAAAA
DNA 2: TTTTCCCGGAGC
B3: the binding result with E2F-1/DP1 heterodimer [1] is recorded as “no binding”.

B4: region 3 mutant (dsDNA)
DNA 1: AGAGCATGCAGAACTCCGCACGAGCGGTGG
DNA 2: CCACCGCTCGTGCGGAGTTCTGCATGCTCT
As to B4, in the data set with E2F-1/DP1 heterodimer [3], the binding result was “no binding”.

B5: region 2 mutant 1 (dsDNA)
DNA 1: AATCCCACCCGGCACCTCAGG
DNA 2: CCTGAGGTGCCGGGTGGGATT
As to B5, the binding result with E2F-1/DP1 heterodimer [4] is “no binding”.

B6: region 2 mutant 4 (dsDNA)
DNA 1: AATCCCGCCCGGCGCATCAGG
DNA 2: CCTGATGCGCCGGGCGGGATT
Take B6: the binding result with E2F-1/DP1 heterodimer [2] was “no binding”.

B7: Skp2 promoter region 3 (dsDNA)
DNA 1: AGAGCGGGATGCAGAACTCCGCGCGCGCGGTGG
DNA 2: CCACCGCGCGCGCGGAGTTCTGCATCCCGCTCT
In the case of B7, the binding result with E2F-1/DP1 heterodimer [1] was “binds”.

B8: region 2 mutant 3 (dsDNA)
DNA 1: AATCCCGCCCGGATCCGCAGG
DNA 2: CCTGCGGATCCGGGCGGGATT
As to B8, the binding result with E2F-1/DP1 heterodimer [2] is recorded as “no binding”.

B9: Skp2 promoter region 2 (dsDNA)
DNA 1: AATCCCGCCCGGCGCCGCAGG
DNA 2: CCTGCGGCGCCGGGCGGGATT
As to B9, in the data set with E2F-1/DP1 heterodimer [1], the binding result was “binds”.
